Experimental data: patent publication US20140357838A1, “N-Terminally Modified Insulin Derivatives” (Novo Nordisk A/S, priority 2011, published 2014)
Starred links: 1 amine or outer side, 2 acyl side, 3 side chain; linkers in the order of their positions; H or OH if unused. Positions of bridges follow the written chain, without caps; N, C: chain ends. Groups on a side chain read outwards from the residue. Chains are numbered I, II in the order given. No end group written: not given here. *: point of attachment. Phe(Nα-CONH2) = NC(=O)N[C@@H](Cc1ccccc1)C(=O)*; C20 diacid = O=C(O)CCCCCCCCCCCCCCCCCCC(=O)*; C18 diacid = O=C(O)CCCCCCCCCCCCCCCCC(=O)*; NMe2Phe = CN(C)[C@@H](Cc1ccccc1)C(=O)*; γGlu = O=C(O)[C@H](CCC(=O)[*:2])N[*:1]; Hydantoyl = NC(=O)NCC(=O)*; AEEA = NCCOCCOCC(=O)O; Me2Gly = CN(C)CC(=O)*

What was measured:
[1] = Chemical stability of insulin derivatives in 2 mM phosphate (SEC-HPLC and RP-HPLC); type: physicochemical; conditions: 4 weeks 37° C. minus 5° C. start sample; for Chemical degradation (%) (4 weeks 37° C.- 0 weeks 5° C.): pH 7.5, RP-HPLC; for HMWP Formation (%) (4 weeks 37° C.- 0 weeks 5° C.): pH 7.5, SEC-HPLC
Procedure: Chemical stability of an insulin derivative is assessed after incubating insulin derivative in 2 mM phosphate, pH=7.5 at 37° C. for up to 8 weeks. Formation of high molecular weight products (HMWP) is determined by SEC HPLC analysis after 0, 2, 4 and optionally 8 weeks. The results of the SEC method are given as a difference between HMWP formation at 37° C. and 5° C. start sample as a percentage of total absorbance at 215 nm. Chemical degradation products are determined by RP HPLC analysis after 0, 2, 4 and optionally 8 weeks. The results of the RP method are given as a difference between chemical degradation observed at 37° C. and 5° C. start sample as a percentage of total absorbance at 215 nm.
• Solvent: 500 mM NaCl, 10 mM NaH2PO4, 5 mM H3PO4, 50% (v/v) 2-propanol • Flow: 0.5 ml/min • Run time: 30 min • UV Detection: 215 nm • Column: Insulin HMWP column from Waters 7.8×300 mm • Temperature: 50° C.
• Solvent A: 0.09M phosphate buffer pH 3.6 (di-ammoniumhydrogenphosphate), 10% MeCN (v/v) • Solvent B: 80% MeCN (v/v %) • Flow: 0.3 ml/min • Runtime: 33 min • UV Detection: 215 nm • Column: Waters Acquity BEH130 C18 Column 1.7 μm, 150×2.1 mm • Temperature: 50° C. • Gradient: […]

human insulin receptor [2] = target: T1, human insulin receptor (Homo sapiens, UniProt P06213); test: Insulin receptor affinity, SPA antibody capture assay (0% HSA); type: binding; conditions: relative to the affinity of human insulin
Procedure: (§1) SPA-PVT antibody-binding beads, anti-mouse reagent (Amersham Bio-sciences, Cat No. PRNQ0017) are mixed with 25 ml of binding buffer (100 mM HEPES pH 7.8; 100 mM sodium chloride, 10 mM MgSO4, 0.025% Tween-20). […] A total of 100 μl reagent mix is then added to each well in the Packard Optiplate and a dilution series of the N-terminally modified insulin is made in the Optiplate from appropriate samples. The samples are then incubated for 16 hours while gently shaken. The phases are the then separated by centrifugation for 1 min and the plates counted in a Topcounter.

human insulin receptor [3] = target: T1, human insulin receptor; test: Insulin receptor affinity, SPA assay with […] HSA in binding buffer; conditions: relative to the affinity of human insulin
Procedure: as §1

[4] = Hydrophobicity by isocratic reverse phase HPLC; type: physicochemical; conditions: k'rel, isocratic RP-HPLC, pH 7.3, human insulin = 1
Procedure: The hydrophobicity of an N-terminally modified insulin is found by reverse phase HPLC run under isocratic conditions. […] The hydrophobicity, k′rel, is calculated as: k′relderiv=((tderiv−t0)(tref−t0)*k′relref. Using HI as reference: k′relref=k′relHI=1. The void time of the HPLC system, t0, is determined by injecting 5 μl of 0.1 mM NaNO3. Running conditions:
Column: Lichrosorb RP-C18, 5 μm, 4×250 mm
Buffer A: 0.1 M natrium phosphate pH 7.3, 10 vol % CH3CN
After running an initial gradient, the isocratic level for running the derivative and reference (for example HI) is chosen, and the elution times of the derivative and reference under isocratic conditions are used in the above equation to calculate k′relderiv.

T1 sequence (P06213 28-746 isoform P06213-2 limits assumed): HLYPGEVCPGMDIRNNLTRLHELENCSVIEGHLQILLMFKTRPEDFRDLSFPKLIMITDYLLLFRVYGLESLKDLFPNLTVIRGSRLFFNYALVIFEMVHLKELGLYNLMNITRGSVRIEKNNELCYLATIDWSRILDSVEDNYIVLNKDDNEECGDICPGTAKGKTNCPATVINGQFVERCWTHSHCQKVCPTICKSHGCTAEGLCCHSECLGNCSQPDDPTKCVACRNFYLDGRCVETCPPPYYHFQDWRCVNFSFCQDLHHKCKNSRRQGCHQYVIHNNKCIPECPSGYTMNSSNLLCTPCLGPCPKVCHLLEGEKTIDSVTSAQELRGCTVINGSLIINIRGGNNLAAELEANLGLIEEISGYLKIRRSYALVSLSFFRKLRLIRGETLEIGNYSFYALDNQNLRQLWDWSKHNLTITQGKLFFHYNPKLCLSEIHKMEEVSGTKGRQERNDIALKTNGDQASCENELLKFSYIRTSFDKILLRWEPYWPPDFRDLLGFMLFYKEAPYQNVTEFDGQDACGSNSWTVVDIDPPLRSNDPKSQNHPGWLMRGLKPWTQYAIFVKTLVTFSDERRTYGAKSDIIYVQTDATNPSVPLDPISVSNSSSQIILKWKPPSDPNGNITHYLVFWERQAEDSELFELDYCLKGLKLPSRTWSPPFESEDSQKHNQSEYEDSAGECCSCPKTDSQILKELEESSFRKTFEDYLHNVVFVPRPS
T1 sequence (P06213 763-1382 partner limits assumed): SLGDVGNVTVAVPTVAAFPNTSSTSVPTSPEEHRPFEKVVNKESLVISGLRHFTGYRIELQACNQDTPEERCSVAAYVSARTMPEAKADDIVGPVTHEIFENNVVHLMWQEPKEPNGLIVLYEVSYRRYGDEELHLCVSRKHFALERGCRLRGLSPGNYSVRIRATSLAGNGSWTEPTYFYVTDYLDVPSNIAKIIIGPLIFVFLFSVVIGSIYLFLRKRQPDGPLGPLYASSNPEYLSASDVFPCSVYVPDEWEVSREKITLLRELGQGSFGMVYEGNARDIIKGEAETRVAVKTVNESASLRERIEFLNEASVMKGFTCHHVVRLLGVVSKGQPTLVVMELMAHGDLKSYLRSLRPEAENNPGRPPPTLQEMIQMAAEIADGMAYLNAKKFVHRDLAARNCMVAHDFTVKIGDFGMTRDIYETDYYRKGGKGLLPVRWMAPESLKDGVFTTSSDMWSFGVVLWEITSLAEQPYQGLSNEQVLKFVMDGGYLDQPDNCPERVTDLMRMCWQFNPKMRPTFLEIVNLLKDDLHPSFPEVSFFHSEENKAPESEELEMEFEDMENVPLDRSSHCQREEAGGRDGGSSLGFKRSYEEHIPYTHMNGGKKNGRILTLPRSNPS

Row | Substance | Chemical degradation (%) (4 weeks 37° C.- 0 weeks 5° C.) [1] | HMWP Formation (%) (4 weeks 37° C.- 0 weeks 5° C.) [1] | Relative IR-A affinity (@ 0% HSA) (%) (human insulin receptor [2]) | Relative IR-A affinity (@ […] HSA) (%)e (human insulin receptor [3]) | Hydrophobicity rel. to human insulin [4]
1 | I: Me2Gly-VCQHLCGSHLVEALHLVCGERGFHYTPK([γGlu-C18 diacid]) / II: Me2Gly-IVEQCCTSCCSLEQLENYCN (disulfide I:2-II:9, I:6-II:6, I:18-II:19, II:5-II:10) [Example 8, A1(N^α,N^α-Dimethyl), A10C, A14E, B1G(N^α,N^α-dimethyl), B3C, B16H, B25H, B29K(N^εoctadecanedioyl-gGlu), desB30 Human Insulin] | 66.4% | 54.5% | – | – | –
2 | I: Me2Gly-VCQHLCGSHLVEALYLVCGERGFFYPK([AEEA-AEEA-γGlu-C18 diacid]) / II: Me2Gly-IVEQCCTSCCSLEQLENYCN (disulfide I:2-II:9, I:6-II:6, I:18-II:19, II:5-II:10) [Example 14, A1(N^α,N^α-Dimethyl), A10C, A14E, B1G(N^α,N^α-dimethyl), B3C, desB27, B29K(N^εoctadecanedioyl-gGlu-2×OEG), desB30 Human Insulin] | – | 0.0% | – | – | –
3 | I: Me2Gly-VCQHLCGSHLVEALYLVCGERGFFYPK([γGlu-C18 diacid]) / II: Me2Gly-IVEQCCTSCCSLEQLENYCN (disulfide I:2-II:9, I:6-II:6, I:18-II:19, II:5-II:10) [Example 9, A1(N^α,N^α-Dimethyl), A10C, A14E, B1G(N^α,N^α-dimethyl), B3C, desB27, B29K(N^εoctadecanedioyl-gGlu), desB30 Human Insulin] | 5.7% | – | – | – | –
4 | I: Me2Gly-VCQHLCGSHLVEALYLVCGERGFHYPK([AEEA-AEEA-γGlu-C18 diacid]) / II: Me2Gly-IVEQCCTSCCSLEQLENYCN (disulfide I:2-II:9, I:6-II:6, I:18-II:19, II:5-II:10) [Example 15, A1(N^α,N^α-Dimethyl), A10C, A14E, B1G(N^α,N^α-dimethyl), B3C, B25H, desB27, B29K(N^εoctadecanedioyl-gGlu-2×OEG), desB30 Human Insulin] | 10.4% | 1.2% | – | – | –
5 | I: Me2Gly-VCQHLCGSHLVEALYLVCGERGFHYPK([γGlu-C18 diacid]) / II: Me2Gly-IVEQCCTSCCSLEQLENYCN (disulfide I:2-II:9, I:6-II:6, I:18-II:19, II:5-II:10) [Example 7, A1(N^α,N^α-Dimethyl), A10C, A14E, B1G(N^α,N^α-dimethyl), B3C, B25H, desB27, B29K(N^εoctadecanedioyl-gGlu), desB30 Human Insulin] | 0.6% | 0.4% | – | – | –
6 | I: Me2Gly-VCQHLCGSHLVEALYLVCGERGFHYTPK([AEEA-AEEA-γGlu-C18 diacid]) / II: Me2Gly-IVEQCCTSCCSLEQLENYCN (disulfide I:2-II:9, I:6-II:6, I:18-II:19, II:5-II:10) [Example 16, A1(N^α,N^α-Dimethyl), A10C, A14E, B1G(N^α,N^α-dimethyl), B3C, B25H, B29K(N^εoctadecanedioyl-gGlu-2×OEG), desB30 Human Insulin] | 58.0% | 42.7% | – | – | –
7 | I: NMe2Phe-VCQHLCGSHLVEALHLVCGERGFHYTPK([AEEA-AEEA-γGlu-C18 diacid]) / II: Me2Gly-IVEQCCTSCCSLEQLENYCN (disulfide I:2-II:9, I:6-II:6, I:18-II:19, II:5-II:10) [Example 13, A1(N^α,N^α-Dimethyl), A10C, A14E, B1(N^α,N^α-dimethyl), B3C, B16H, B25H, B29K(N^εoctadecanedioyl-gGlu-2×OEG), desB30 Human Insulin] | 9.8% | – | – | – | –
8 | I: NMe2Phe-VCQHLCGSHLVEALHLVCGERGFHYTPK([γGlu-C18 diacid]) / II: Me2Gly-IVEQCCTSCCSLEQLENYCN (disulfide I:2-II:9, I:6-II:6, I:18-II:19, II:5-II:10) [Example 4, A1(N^α,N^α-Dimethyl), A10C, A14E, B1(N^α,N^α-dimethyl), B3C, B16H, B25H, B29K(N^εoctadecanedioyl-gGlu), desB30 Human Insulin] | 8.7% | −0.4% | – | – | –
9 | I: NMe2Phe-VCQHLCGSHLVEALYLVCGERGFHYPK([γGlu-C20 diacid]) / II: Me2Gly-IVEQCCTSCCSLEQLENYCN (disulfide I:2-II:9, I:6-II:6, I:18-II:19, II:5-II:10) [Example 18, A1(N^α,N^α-Dimethyl), A10C, A14E, B1(N^α,N^α-dimethyl), B3C, B25H, desB27, B29K(N^εeicosanedioyl-gGlu), desB30 Human Insulin] | 4.2% | 5.1% | 0.72% | 0.02% | 0.12
10 | I: NMe2Phe-VCQHLCGSHLVEALYLVCGERGFHYTPK([AEEA-AEEA-γGlu-C18 diacid]) / II: Me2Gly-IVEQCCTSCCSLEQLENYCN (disulfide I:2-II:9, I:6-II:6, I:18-II:19, II:5-II:10) [Example 12, A1(N^α,N^α-Dimethyl), A10C, A14E, B1(N^α,N^α-dimethyl), B3C, B25H, B29K(N^εoctadecanedioyl-gGlu-2×OEG), desB30 Human Insulin] | – | – | – | – | 0.077
11 | I: NMe2Phe-VCQHLCGSHLVEALYLVCGERGFHYTPK([γGlu-C18 diacid]) / II: Me2Gly-IVEQCCTSCCSLEQLENYCN (disulfide I:2-II:9, I:6-II:6, I:18-II:19, II:5-II:10) [Example 3, A1(N^α,N^α-Dimethyl), A10C, A14E, B1(N^α,N^α-dimethyl), B3C, B25H, B29K(N^εoctadecanedioyl-gGlu), desB30 Human Insulin] | 3.4% | – | – | – | 0.065
12 | I: NMe2Phe-VCQHLCGSHLVEALYLVCGERGFHYTPK([γGlu-C20 diacid]) / II: Me2Gly-IVEQCCTSCCSLEQLENYCN (disulfide I:2-II:9, I:6-II:6, I:18-II:19, II:5-II:10) [Example 19, A1(N^α,N^α-Dimethyl), A10C, A14E, B1(N^α,N^α-dimethyl), B3C, B25H, B29K(N^εeicosanedioyl-gGlu), desB30 Human Insulin] | 11.7% | 34.6% | – | – | –
13 | I: {Phe(Nα-CONH2)}-VCQHLCGSHLVEALYLVCGERGFFYPK([γGlu-C18 diacid]) / II: Hydantoyl-IVEQCCTSCCSLEQLENYCN (disulfide I:2-II:9, I:6-II:6, I:18-II:19, II:5-II:10) [Example 36, A1(N^α-Carbamoyl), A10C, A14E, B1(N^α-carbamoyl), B3C, desB27, B29K(N^εoctadecanedioyl-gGlu), desB30 Human Insulin] | – | – | 0.7% | 0.01% | –
